# Experimental data from the supplement of paper PMC10567573.
# B1: C1orf137 (parent)
# chain: LPQETNLTLKVCKPQAPQKLDPTL
# Variants of: B1
# Assay: protein stability index of a GFP-peptide fusion (GPS, HEK-293T) (PSI 1-6); higher = more stable
# Conditions: c terminus: a fixed tail appended
# 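Further: lentivirally expressed fusions sorted by FACS into six bins by GFP to DsRed ratio, PSI derived from sequencing read proportions per bin multiplied by bin number.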
row,Variant,protein stability index
1,LPQETALTLKVCKPQAPQKLDPTL [N6A],3.88
2,LPQETVLTLKVCKPQAPQKLDPTL [N6V],3.29
3,LPQETDLTLKVCKPQAPQKLDPTL [N6D],4.38
4,LPIETNLTLKVCKPQAPQKLDPTL [Q3I],3.1
5,LPWETNLTLKVCKPQAPQKLDPTL [Q3W],2.54
6,LPGETNLTLKVCKPQAPQKLDPTL [Q3G],3.63
7,LPLETNLTLKVCKPQAPQKLDPTL [Q3L],3.58
8,LPYETNLTLKVCKPQAPQKLDPTL [Q3Y],3.34
9,LPNETNLTLKVCKPQAPQKLDPTL [Q3N],3.53
10,LPDETNLTLKVCKPQAPQKLDPTL [Q3D],4.33
11,LPPETNLTLKVCKPQAPQKLDPTL [Q3P],3.79
12,LPKETNLTLKVCKPQAPQKLDPTL [Q3K],3.96
13,LPQETNLTLKVAKPQAPQKLDPTL [C12A],5.06
14,LPQETNLTLKVWKPQAPQKLDPTL [C12W],4.28
15,LPQETNLTLKVLKPQAPQKLDPTL [C12L],4.06
16,LPQETNLTLKSCKPQAPQKLDPTL [V11S],4.19
17,LPQETNLTLKMCKPQAPQKLDPTL [V11M],3.77
18,LPQETNLTLKTCKPQAPQKLDPTL [V11T],3.66
19,LPQETNLTLKPCKPQAPQKLDPTL [V11P],4.54
20,LPQETNLTLKGCKPQAPQKLDPTL [V11G],3.42
21,LPQETNLTLKVCKPQAPRKLDPTL [Q18R],3.8
22,LPQETNLTLKVCKPQAPEKLDPTL [Q18E],3.23
23,LPQETNLTLKVCKPQAPMKLDPTL [Q18M],3.28
24,LPQETNLTLKVCKPKAPQKLDPTL [Q15K],3.69

row,Variant,protein stability index
1,LPQETNLTLKVCKPHAPQKLDPTL [Q15H],3.65
2,LPQETNLTLKVCKPGAPQKLDPTL [Q15G],3.93
3,LPQETNLTLKVCKPNAPQKLDPTL [Q15N],4.04
4,LPQETNLTLKVCKPDAPQKLDPTL [Q15D],4.49
5,LPQETNLTLKVCKPIAPQKLDPTL [Q15I],3.03
6,LPQETNLTLKVCKPRAPQKLDPTL [Q15R],3.69
7,LPQLTNLTLKVCKPQAPQKLDPTL [E4L],2.6
8,LPQKTNLTLKVCKPQAPQKLDPTL [E4K],3.46
9,LPQMTNLTLKVCKPQAPQKLDPTL [E4M],2.82
10,LPQRTNLTLKVCKPQAPQKLDPTL [E4R],2.64
11,LPQTTNLTLKVCKPQAPQKLDPTL [E4T],3.59
12,LPQESNLTLKVCKPQAPQKLDPTL [T5S],3.9
13,LPQEGNLTLKVCKPQAPQKLDPTL [T5G],3.75
14,LPQEHNLTLKVCKPQAPQKLDPTL [T5H],4
15,LPQEENLTLKVCKPQAPQKLDPTL [T5E],4.2
16,LPQELNLTLKVCKPQAPQKLDPTL [T5L],2.69
17,LPQEFNLTLKVCKPQAPQKLDPTL [T5F],2.77
18,LPQEDNLTLKVCKPQAPQKLDPTL [T5D],4.38
19,LPQETNLTLKVCKPQYPQKLDPTL [A16Y],3.38
20,LPQETNLTLKVCKPQNPQKLDPTL [A16N],4.04
21,LPQETNLTLKVCKPQDPQKLDPTL [A16D],4.41
22,LPQETNLTLKVCKPQWPQKLDPTL [A16W],2.02
23,LPQETNLTLKVCKPQPPQKLDPTL [A16P],3.62
24,LPQETNLTLKVCKPQFPQKLDPTL [A16F],2.92

row,Variant,protein stability index
1,LPQETNLTLKVCKPQAPQKLDPRL [T23R],3.48
2,LPQETNLTLKVCKPQAPQKLDPAL [T23A],3.47
3,LPQETNLTLKVCKPQAPQKLDPFL [T23F],2.98
4,LPQETNLTGKVCKPQAPQKLDPTL [L9G],4.32
5,LPQETNLTFKVCKPQAPQKLDPTL [L9F],4.05
6,LPQETNLTTKVCKPQAPQKLDPTL [L9T],4.67
7,LPQETNITLKVCKPQAPQKLDPTL [L7I],3.4
8,LPQETNRTLKVCKPQAPQKLDPTL [L7R],4.67
9,LPQETNVTLKVCKPQAPQKLDPTL [L7V],4.21
10,LPQETNCTLKVCKPQAPQKLDPTL [L7C],3.53
11,LPQETNLTLMVCKPQAPQKLDPTL [K10M],2.95
12,LPQETNLTLSVCKPQAPQKLDPTL [K10S],4.01
13,LPQETNLTLQVCKPQAPQKLDPTL [K10Q],3.65
14,LPQETNLTLKVCKPQAPQKLDPTF [L24F],4.32
15,LPQETNLTLKVCKPQAPQKLDPTS [L24S],4.53
16,LPQETNLTLKVCKPQAPQKLDPTY [L24Y],3.37
17,LPQETNLTLKVCKPQAPQKLDPTM [L24M],3.94
18,LPQETNLTLKVCKPQAPQKLDPTN [L24N],4.56
19,LPQETNLTLKVCKPQAPQKLDPTK [L24K],4.21
20,LPQETNLTLKVCKPQAPQKLDPTA [L24A],4.34
21,LPQETNLTLKVCIPQAPQKLDPTL [K13I],2.33
22,LPQETNLTLKVCPPQAPQKLDPTL [K13P],4.43
23,LPQETNLTLKVCQPQAPQKLDPTL [K13Q],4.14
24,LPQETNLTLKVCWPQAPQKLDPTL [K13W],2.25

row,Variant,protein stability index
1,LPQETNLTLKVCSPQAPQKLDPTL [K13S],4.14
2,LPQETNLTLKVCMPQAPQKLDPTL [K13M],3.05
3,LPQETNLTLKVCKPQAPQKLVPTL [D21V],2.87
4,LPQETNLTLKVCKPQAPQKLRPTL [D21R],3.19
5,LPQETNLTLKVCKPQAPQKLPPTL [D21P],3.35
6,LPQETNLTLKVCKPQAPQKLGPTL [D21G],3.3
7,LPQETNLTLKVCKPQAPQKLEPTL [D21E],3.98
8,LPQETNLTLKVCKPQAPQKLFPTL [D21F],2.66
9,LPQETNLTLKVCKPQAPQKLHPTL [D21H],2.86
10,LPQETNLTLKVCKPQAPQKKDPTL [L20K],4.9
11,LPQETNLTLKVCKPQAPQKEDPTL [L20E],5.09
12,LPQETNLTLKVCKPQAPQKDDPTL [L20D],4.98
13,LPQETNLTLKVCKPQAPQKSDPTL [L20S],4.34
14,LPQETNLTLKVCKPQAPQKFDPTL [L20F],3.31
15,LPQETNLTLKVCKPQAPQKYDPTL [L20Y],4.46
16,LPQETNLTLKVCKPQAPQKCDPTL [L20C],4.18
17,LPQETNLTLKVCKPQAPQKHDPTL [L20H],4.43
18,LPQETNLTLKVCKPQAPQKIDPTL [L20I],3.42
19,LPQETNLKLKVCKPQAPQKLDPTL [T8K],3.57
20,LPQETNLMLKVCKPQAPQKLDPTL [T8M],3.69
21,LPQETNLFLKVCKPQAPQKLDPTL [T8F],2.9
22,LPQETNLRLKVCKPQAPQKLDPTL [T8R],3.57
